To fix the notation:
B1: Hairpin Ribozyme (parent)
chain: GUCCUCUUUCACGUGCGCGUGAAAGAGAGAAGUGAACCAGAGAAACACACGUUGUGGUAUAUUACCUGGUA

Variants of B1 are the subject of this data set. Put plainly: self-cleavage, relative activity (ratio to wild type); higher = more cleavage; co-transcriptional.
Regarding C6G A39G, the self-cleavage is 0.197. Turning to C6G G57C, the self-cleavage was determined as 0.124. As for C6A U58G, the self-cleavage came out at 0.559. Next, U7A A35U: 0.714; C6U C10U: 0.582.

Take C6U C10A: the self-cleavage amounted to 0.55. Take C6A G15A: the self-cleavage turned out to be 0.54. Turning to C6U G15A, the self-cleavage was 0.794. In the case of C6U G15C, the self-cleavage was found to be 0.722. Turning to C6A A41G, the self-cleavage was found to be 0.439. Take C6A C50U: the self-cleavage stood at 0.239. In the case of C6U A36G it was 0.834; in that of U7A U33G, 0.0989. With U7A C37U, the self-cleavage is 0.403. Regarding U7A C37A, the self-cleavage is 0.261. In the case of U7A U8C it was 0.559; in that of C6G A47C, 0.235; in that of C6A A71U, 0.423. Next, C6A U67C: 0.15; C6U C16A: 0.85; C6G U67C: 0.151. For the variant C6G U67G, the self-cleavage was determined as 0.146. Turning to C6A G56C, the self-cleavage was 0.128. C6G A71G: the self-cleavage worked out at 0.574. C6G A36U: the self-cleavage amounted to 0.215. On to C6U G54C, for which the self-cleavage came out at 0.311. With U7A U67G, the self-cleavage amounted to 0.282. For U7A U67A, the self-cleavage was determined as 0.223. Regarding C6A A26G, the self-cleavage came to 0.281. Take C6A A26U: the self-cleavage turned out to be 0.364. Next, C6U U52C: 0.773. Turning to C6U U52A, the self-cleavage amounted to 0.965. Regarding U7A G19A, the self-cleavage turned out to be 0.845.

In the case of C6G G51U, the self-cleavage came to 0.44. In the case of C6G U9C, the self-cleavage came out at 0.436.

With U7A A43C, the self-cleavage was determined as 0.186. Consider U5G U52C, for which the self-cleavage worked out at 0.596. Take U5G U8A: the self-cleavage turned out to be 0.126. For U5G C10U, the self-cleavage amounted to 0.317. In the case of C6G G17A, the self-cleavage turned out to be 0.491.

Consider C6G G17C, for which the self-cleavage worked out at 0.365. U7A G34U: the self-cleavage is 1.4. On to U7A G34C, for which the self-cleavage is 1.36. For U7A A44C, the self-cleavage stood at 0.177. Next, U7A A41C: 1.3; C6U C18A: 0.885.

As for U5G G27C, the self-cleavage came to 0.0408.

Regarding C6U G51C, the self-cleavage amounted to 0.823. For C6G G15U, the self-cleavage amounted to 0.706. As to C6G A59G, the self-cleavage amounted to 0.121. Next, C6G A59C: 0.0783; C6A C46G: 0.189; C6U A71G: 0.82. Turning to C6U A71U, the self-cleavage was 0.708. For C6G C50G, the self-cleavage amounted to 0.109. Take C6G C50A: the self-cleavage worked out at 0.14. For the variant C6A G54A, the self-cleavage was found to be 0.342.

As for C6A G54U, the self-cleavage was found to be 0.379. In the case of C6A A36C it was 0.393; in that of C6A A36U, 0.384; in that of C6A A36G, 0.595. Regarding U5G U9A, the self-cleavage was 0.346. As to U5G U9G, the self-cleavage turned out to be 0.147. As for U5G G34A, the self-cleavage was 0.603. With U5G G34C, the self-cleavage was determined as 0.886. For the variant U7C A26U, the self-cleavage was determined as 0.176. As for U7A A22G, the self-cleavage was found to be 0.61. As to U7A A22C, the self-cleavage was 0.649.

Regarding U5G C16G, the self-cleavage was found to be 0.146.

As for U5G C16U, the self-cleavage worked out at 0.269. Next, C6U C46G: 0.204; C6U C46A: 0.0705; C6A G17U: 0.553. In the case of C6U A31G, the self-cleavage is 0.451. U7A A11C: the self-cleavage was 0.636. As to C6G G21A, the self-cleavage was 0.179. In the case of U7A G32A it was 0.145; in that of U7A G32U, 0.149. Turning to C6U G19C, the self-cleavage worked out at 0.719. For the variant C6U G19A, the self-cleavage amounted to 0.793. With U7A G57U, the self-cleavage turned out to be 0.253. Regarding U5G C12U, the self-cleavage was determined as 0.529. Next, U5G C12G: 0.239; C6U A28G: 0.734; C6U A28C: 0.428. For the variant U5G U70G, the self-cleavage stood at 0.354. Consider U7A C65U, for which the self-cleavage came out at 0.349.

On to U7A C65A, for which the self-cleavage was found to be 0.876.

Consider C6U U20G, for which the self-cleavage is 0.637.

Consider U7A U14G, for which the self-cleavage stood at 0.881.

Consider U7A U14A, for which the self-cleavage was determined as 1.03. U5G G25U: the self-cleavage was found to be 0.306. Next, C6A A49G: 0.204; C6A A49C: 0.112. Next, C6U U8A: 0.538; C6U U8G: 0.431. In the case of U5G G29C it was 0.0639.

With C6G A41G, the self-cleavage was found to be 0.47. Take U5G G42A: the self-cleavage was 0.0213. U7A U58A: the self-cleavage amounted to 0.58. C6G A45C: the self-cleavage came out at 0.163. Next, C6U A22U: 0.789; C6U A22C: 0.493. Turning to C6G G29A, the self-cleavage amounted to 0.138. As to C6G G29C, the self-cleavage is 0.146. As for U5G U7C, the self-cleavage was 0.143. In the case of U5G U7G it was 0.171; in that of U7A A24C, 1.02.

Regarding C6U G29U, the self-cleavage was determined as 0.12. As for U7A A71C, the self-cleavage amounted to 1.34. In the case of U5G U63G it was 0.0714; in that of U5G U63A, 0.127; in that of C6A G42C, 0.239. Next, U7A C10G: 0.541. Consider C6G A23C, for which the self-cleavage amounted to 0.122. C6A U33G: the self-cleavage turned out to be 0.149. As to U5G C66G, the self-cleavage worked out at 0.127. Regarding C6U U62A, the self-cleavage was 0.266. In the case of C6G G25U, the self-cleavage amounted to 0.475. Next, C6U G56C: 0.149; C6G U33A: 0.155. Next, C6A U62C: 0.157; U7C A11U: 0.294; U7C A11G: 0.684. Regarding U5G U62A, the self-cleavage worked out at 0.124.

Take U5G U62C: the self-cleavage was determined as 0.129. U5G G51C: the self-cleavage was 0.221. Turning to U5G G51A, the self-cleavage turned out to be 0.377. Consider C6A U63G, for which the self-cleavage was 0.191. As to C6U U53A, the self-cleavage is 0.912.

Consider U7A A28C, for which the self-cleavage stood at 0.471. In the case of U7A A28G, the self-cleavage amounted to 1.03. In the case of C6G G42C it was 0.157; in that of C6G G42A, 0.0986; in that of C6A A64G, 0.444. In the case of C6A U53G, the self-cleavage worked out at 0.422. Take U7A U52C: the self-cleavage was 0.953. Turning to U5G C65A, the self-cleavage was determined as 0.268.

In the case of U5G C65U, the self-cleavage turned out to be 0.218. Turning to C6U U60C, the self-cleavage was determined as 0.794. Next, C6G G32U: 0.116. For the variant C6G G32A, the self-cleavage amounted to 0.106. As to C6G C38U, the self-cleavage turned out to be 0.332. Take C6G C38G: the self-cleavage is 0.0998. On to U5G G13A, for which the self-cleavage worked out at 0.245. Next, C6A A31U: 0.0881; C6A A31G: 0.446. In the case of C6A A31C it was 0.1; in that of C6G G40A, 0.207. Next, C6G G40C: 0.0776. On to C6A A43U, for which the self-cleavage was 0.131.

On to C6U A59C, for which the self-cleavage turned out to be 0.251.

Regarding C6U A59G, the self-cleavage was 0.266. In the case of C6U A59U it was 0.127; in that of C6U U33C, 0.135.

Regarding C6G U60G, the self-cleavage came out at 0.31. With C6G U60A, the self-cleavage came to 0.496.

With C6G G69U, the self-cleavage came to 0.188. Regarding C6G G69C, the self-cleavage turned out to be 0.115. In the case of U5G U67C it was 0.117. With U5G U67A, the self-cleavage stood at 0.275. Turning to U5G C18A, the self-cleavage was found to be 0.37.

U7A G56C: the self-cleavage worked out at 0.176. In the case of U7A G56U it was 0.128; in that of U7A G51C, 0.972. For U7A A64U, the self-cleavage was 0.248. Next, C6U C38U: 0.37.
